In the test the target is calmodulin (Homo sapiens, UniProt P0DP23). The experiment in a line: NMR titration.

Kd data for two molecules are collected here from PMC6524640 (2019).

No end group written: not given here.

B1: CEACAM1 long form peptide LFWT (peptide)
chain: HFGKTGRASDQR
modifications: not fully specified
On to B1, for which the Kd came out at 760 µM.

B2: CEACAM1 short form peptide SFWT (peptide)
chain: HFGKTGSSGPLQ
modifications: not fully specified
The molecule B2 displayed a Kd of 1440 µM.
